The numbers were not newly measured in PMC9304195, which cites them from elsewhere.

The target in this data set is UGGT (Homo sapiens) (UniProt Q9NYU2).
Chain of UGGT (Homo sapiens) (Q9NYU2 43-1555): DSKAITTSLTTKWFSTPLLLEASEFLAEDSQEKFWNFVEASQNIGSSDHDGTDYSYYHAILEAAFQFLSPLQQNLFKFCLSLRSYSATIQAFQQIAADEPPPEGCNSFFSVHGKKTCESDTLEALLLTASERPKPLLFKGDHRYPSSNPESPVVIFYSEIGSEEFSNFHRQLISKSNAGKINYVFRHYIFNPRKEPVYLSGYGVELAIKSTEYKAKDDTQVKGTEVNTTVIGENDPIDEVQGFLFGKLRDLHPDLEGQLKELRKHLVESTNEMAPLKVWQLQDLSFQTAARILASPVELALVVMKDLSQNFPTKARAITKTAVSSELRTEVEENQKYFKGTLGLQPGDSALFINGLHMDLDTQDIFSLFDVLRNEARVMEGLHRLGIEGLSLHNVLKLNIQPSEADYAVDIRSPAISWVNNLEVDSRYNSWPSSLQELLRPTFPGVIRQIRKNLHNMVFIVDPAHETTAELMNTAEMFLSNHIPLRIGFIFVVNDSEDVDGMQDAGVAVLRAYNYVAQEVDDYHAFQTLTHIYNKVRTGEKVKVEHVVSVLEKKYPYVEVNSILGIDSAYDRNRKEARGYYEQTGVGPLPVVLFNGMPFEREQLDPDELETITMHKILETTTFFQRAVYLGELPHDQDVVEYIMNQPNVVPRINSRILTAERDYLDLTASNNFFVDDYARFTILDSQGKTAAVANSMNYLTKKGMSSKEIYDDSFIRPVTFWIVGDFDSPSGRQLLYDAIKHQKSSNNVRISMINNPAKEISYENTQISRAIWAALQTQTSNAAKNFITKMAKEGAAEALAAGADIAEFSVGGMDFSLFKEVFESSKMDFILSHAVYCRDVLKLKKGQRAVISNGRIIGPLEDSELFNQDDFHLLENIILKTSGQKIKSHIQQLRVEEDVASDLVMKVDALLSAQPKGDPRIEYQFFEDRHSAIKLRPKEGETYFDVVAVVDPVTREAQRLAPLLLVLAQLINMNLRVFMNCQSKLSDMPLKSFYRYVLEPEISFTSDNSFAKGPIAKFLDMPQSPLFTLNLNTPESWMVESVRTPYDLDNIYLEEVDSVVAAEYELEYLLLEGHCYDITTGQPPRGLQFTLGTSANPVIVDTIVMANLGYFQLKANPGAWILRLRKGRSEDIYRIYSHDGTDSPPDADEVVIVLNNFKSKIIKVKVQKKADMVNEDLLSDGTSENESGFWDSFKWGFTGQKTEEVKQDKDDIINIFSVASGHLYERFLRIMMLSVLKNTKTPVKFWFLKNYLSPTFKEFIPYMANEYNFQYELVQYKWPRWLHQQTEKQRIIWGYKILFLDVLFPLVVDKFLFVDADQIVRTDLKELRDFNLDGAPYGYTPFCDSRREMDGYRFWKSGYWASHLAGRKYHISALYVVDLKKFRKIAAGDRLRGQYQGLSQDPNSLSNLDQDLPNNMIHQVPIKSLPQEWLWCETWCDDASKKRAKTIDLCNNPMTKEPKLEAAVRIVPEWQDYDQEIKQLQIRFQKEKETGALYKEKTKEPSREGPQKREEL

Chain of SELENOF (O60613 32-165): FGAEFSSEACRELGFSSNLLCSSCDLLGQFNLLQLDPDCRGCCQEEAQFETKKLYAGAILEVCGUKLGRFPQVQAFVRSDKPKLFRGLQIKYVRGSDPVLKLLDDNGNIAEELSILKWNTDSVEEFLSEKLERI

Turning to SELENOF (from UniProt O60613), the equilibrium dissociation constant (Kd) is 20 nM.
